{"source": "patent US20030186223A1", "about": "“Modular recombinatorial display libraries” (Dyax Corp., priority 2002, published 2003)", "molecules": {"B1": {"name": "SEQ ID NO 22 synthetic polypeptide (peptide)", "chain": "Ac-SGRTTCHHQISGPHGKICVNYGS", "modifications": "cysteine pairing not given here"}, "B2": {"name": "SEQ ID NO 49 synthetic polypeptide (peptide)", "chain": "Ac-SGRLDCDKVFSGPYGKVCVSYGS", "modifications": "cysteine pairing not given here"}, "B3": {"name": "SEQ ID NO 12 phage isolate (peptide, not shown: large carriers; small tags and cut ends)", "peptide": "AHQCHHWTSGPYGEVCFNY", "modifications": "disulfide 4-16 (inferred); also: displayed on M13 phage fused to protein III via linkers"}, "B4": {"name": "SEQ ID NO 10 phage isolate (peptide, not shown: large carriers; small tags and cut ends)", "peptide": "RLDCDMVFSGPHGKICVNY", "modifications": "disulfide 4-16 (inferred); also: displayed on M13 phage fused to protein III via linkers"}, "B5": {"name": "SEQ ID NO 43 phage isolate (peptide, not shown: large carriers; small tags and cut ends)", "peptide": "SNKCDHYQSGPFGDICVSY", "modifications": "disulfide 4-16 (inferred); also: displayed on M13 phage fused to protein III via linkers"}, "B6": {"name": "SEQ ID NO 42 phage isolate (peptide, not shown: large carriers; small tags and cut ends)", "peptide": "SNKCDHYQSGPFGDVCVSY", "modifications": "disulfide 4-16 (inferred); also: displayed on M13 phage fused to protein III via linkers"}, "B7": {"name": "SEQ ID NO 44 phage isolate (peptide, not shown: large carriers; small tags and cut ends)", "peptide": "RTTCHHQISGPFGPVCVNY", "modifications": "disulfide 4-16 (inferred); also: displayed on M13 phage fused to protein III via linkers"}, "B8": {"name": "SEQ ID NO 45 phage isolate (peptide, not shown: large carriers; small tags and cut ends)", "peptide": "RTTCHHQISGPYGDICVKY", "modifications": "disulfide 4-16 (inferred); also: displayed on M13 phage fused to protein III via linkers"}}, "note": "Positions of bridges follow the written chain, without caps; N, C: chain ends. No end group written: not given here.", "data": [{"molecular_target": "T1, KDR-Fc fusion protein (Homo sapiens, UniProt P35968)", "T1 construct": "purchased R & D Systems (Minneapolis, Minn.) 357-KD-050", "T1 sequence (P35968 with tags, fused parts or gaps limits assumed)": "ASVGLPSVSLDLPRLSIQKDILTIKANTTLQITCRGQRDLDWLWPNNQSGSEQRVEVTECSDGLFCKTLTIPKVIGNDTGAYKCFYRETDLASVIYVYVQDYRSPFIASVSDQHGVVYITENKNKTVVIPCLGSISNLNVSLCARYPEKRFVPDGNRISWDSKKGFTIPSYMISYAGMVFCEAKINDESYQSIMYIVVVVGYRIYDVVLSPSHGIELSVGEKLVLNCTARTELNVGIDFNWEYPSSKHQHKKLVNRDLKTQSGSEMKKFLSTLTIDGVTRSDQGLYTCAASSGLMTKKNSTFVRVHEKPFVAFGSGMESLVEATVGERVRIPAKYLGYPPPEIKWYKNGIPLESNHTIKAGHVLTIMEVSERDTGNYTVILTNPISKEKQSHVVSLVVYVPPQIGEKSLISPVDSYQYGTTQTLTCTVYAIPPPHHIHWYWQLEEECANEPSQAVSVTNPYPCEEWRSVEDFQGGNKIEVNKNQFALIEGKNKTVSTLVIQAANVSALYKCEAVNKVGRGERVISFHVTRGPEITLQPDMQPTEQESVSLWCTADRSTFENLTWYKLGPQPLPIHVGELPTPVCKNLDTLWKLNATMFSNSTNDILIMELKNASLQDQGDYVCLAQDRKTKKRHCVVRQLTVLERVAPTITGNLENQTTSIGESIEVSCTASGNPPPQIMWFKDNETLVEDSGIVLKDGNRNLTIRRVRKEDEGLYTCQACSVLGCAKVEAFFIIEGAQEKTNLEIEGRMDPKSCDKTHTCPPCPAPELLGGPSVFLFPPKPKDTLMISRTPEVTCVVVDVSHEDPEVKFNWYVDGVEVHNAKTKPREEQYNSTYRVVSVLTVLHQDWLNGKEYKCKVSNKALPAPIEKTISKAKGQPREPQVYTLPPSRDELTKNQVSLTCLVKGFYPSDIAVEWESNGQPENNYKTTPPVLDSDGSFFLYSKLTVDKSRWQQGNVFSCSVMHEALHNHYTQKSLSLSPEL", "experiment": "BIAcore surface plasmon resonance binding of synthetic polypeptides to immobilized KDR-Fc", "details": "BIAcore SPR; KDR-Fc fusion immobilized on chip; synthetic polypeptide with acetyl-Ser-Gly- and -Gly-Ser flanks", "protocol": "Binding affinity of selected peptides from the various rounds of selection was tested using a BIAcore surface plasmon resonance spectrophotometer. Polypeptides selected from Tables 1, 2, and 3 were synthesized by solid phase synthesis using the sequence as shown in the tables above and an N-terminal flanking peptide, acetyl-Ser-Gly-, and a C-terminal flanking peptide, -Gly-Ser. A KDR-Fc fusion protein target was immobilized on a BIAcore chip, and the synthetic polypeptides were flowed over the chip to measure the KD of the polypeptides with respect to the KDR target.", "values": [{"molecule": "WQECTKVLSGPGQFECEYM (Selected library sequence) [SEQ ID NO: 24]", "binding to KDR target (qualitative)": "no binding"}, {"molecule": "WQECTKVLSGPGQFLCSYG (Selected library sequence) [SEQ ID NO: 6]", "binding to KDR target (qualitative)": "no binding"}, {"molecule": "SNKCDHYQSGPHGKICVNY (Selected library sequence) [SEQ ID NO: 23]", "binding to KDR target (qualitative)": "no binding"}, {"molecule": "SNKCDHYQSGPYGAVCLHY (Selected library sequence) [SEQ ID NO: 7]", "binding to KDR target (qualitative)": "no binding"}]}, {"molecular_target": "T2, KDR-Fc fusion (chimeric fusion of Ig Fc region with human KDR, R & D Systems #357-KD-050) (human, UniProt P35968 20-764)", "T2 construct": "Bought carrier-free from R & D Systems; also called KDR-Fc fusion protein target; KDR target; not shown: Ig Fc region", "T2 sequence (P35968 20-764, change not shown)": "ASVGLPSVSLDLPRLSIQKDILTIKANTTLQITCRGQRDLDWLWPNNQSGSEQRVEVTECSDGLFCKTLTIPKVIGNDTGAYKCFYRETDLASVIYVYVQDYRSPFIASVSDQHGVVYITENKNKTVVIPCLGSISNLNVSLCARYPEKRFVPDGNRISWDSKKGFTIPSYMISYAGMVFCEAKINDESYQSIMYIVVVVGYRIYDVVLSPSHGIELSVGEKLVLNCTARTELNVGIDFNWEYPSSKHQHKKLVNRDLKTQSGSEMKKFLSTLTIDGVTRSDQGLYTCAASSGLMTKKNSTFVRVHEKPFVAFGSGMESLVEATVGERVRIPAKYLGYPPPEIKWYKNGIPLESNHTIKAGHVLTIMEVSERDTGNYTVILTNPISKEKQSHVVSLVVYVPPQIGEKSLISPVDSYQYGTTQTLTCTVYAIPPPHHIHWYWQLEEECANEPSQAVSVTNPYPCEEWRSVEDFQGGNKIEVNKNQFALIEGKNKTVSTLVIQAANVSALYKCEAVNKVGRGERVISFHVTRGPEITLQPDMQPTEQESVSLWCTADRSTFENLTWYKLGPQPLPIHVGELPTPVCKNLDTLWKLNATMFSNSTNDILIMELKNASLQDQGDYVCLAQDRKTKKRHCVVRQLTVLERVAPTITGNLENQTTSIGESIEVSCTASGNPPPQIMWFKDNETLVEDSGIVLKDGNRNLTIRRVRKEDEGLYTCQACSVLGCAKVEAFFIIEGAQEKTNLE", "experiment": "BIAcore SPR, KDR-Fc immobilized on chip, synthetic peptide flowed over", "details": "not given", "units": {"Kd": "nM"}, "values": [{"molecule": "B1", "Kd": 650}, {"molecule": "B2", "Kd": 1000}]}, {"molecular_target": "T2, KDR-Fc fusion (chimeric fusion of Ig Fc …)", "experiment": "phage display selection on KDR-Fc beads and phage ELISA screen on KDR-Fc", "details": "not given", "protocol": "The phage library was incubated with 50 μl of Trail R4 Fc fusion beads on a Labquake shaker for 1 hour at room temperature (RT). After incubation, the phage supernatant was removed and incubated with another 50 μl of Trail R4 beads. This was repeated for a total of 5 rounds of depletion, to remove non-specific Fc fusion and bead binding phage from the library. The depleted library was added to 100 μl of KDR-Fc beads and allowed to incubate on a LabQuake shaker for 1 hour at RT. Beads were then washed as rapidly as possible with 5×1 ml PBSTH using a magnetic stand (Promega) to separate the beads from the wash buffer. Phage still bound to beads after the washing were competition-eluted using soluble VEGF₁₆₅ (#100-20) purchased in carrier-free form from Peprotech (Rocky Hill, N.J.) as follows: The beads were incubated with 250 μl of VEGF (50 μg/ml,˜1 μM) overnight at room temperature (RT) on a LabQuake shaker. […]\nOnce the plates were prepared, each overnight phage culture was diluted 1:1 (or to 10¹⁰ pfu if using purified phage stock) with PBS, 0.05% Tween-20, 1% BSA. […] Each plate was washed 7 times with PBST (PBS, 0.05% Tween-20), then the plates were developed with HRP substrate (˜10 minutes) and the absorbance signal (630 nm) detected with a plate reader.", "values": [{"molecule": "B3", "binding result": "binds"}, {"molecule": "B4", "binding result": "binds"}]}, {"molecular_target": "T2, KDR-Fc fusion (chimeric fusion of Ig Fc …)", "experiment": "secondary library, round 1: phage display selection against KDR-Fc as before", "details": "not given", "values": [{"molecule": "B5", "binding result": "binds"}, {"molecule": "B6", "binding result": "binds"}, {"molecule": "B7", "binding result": "binds"}, {"molecule": "B8", "binding result": "binds"}]}]}
